In the data set the target is T1, SNI1 (Arabidopsis thaliana, UniProt Q9SWA6 1-432).
T1 sequence: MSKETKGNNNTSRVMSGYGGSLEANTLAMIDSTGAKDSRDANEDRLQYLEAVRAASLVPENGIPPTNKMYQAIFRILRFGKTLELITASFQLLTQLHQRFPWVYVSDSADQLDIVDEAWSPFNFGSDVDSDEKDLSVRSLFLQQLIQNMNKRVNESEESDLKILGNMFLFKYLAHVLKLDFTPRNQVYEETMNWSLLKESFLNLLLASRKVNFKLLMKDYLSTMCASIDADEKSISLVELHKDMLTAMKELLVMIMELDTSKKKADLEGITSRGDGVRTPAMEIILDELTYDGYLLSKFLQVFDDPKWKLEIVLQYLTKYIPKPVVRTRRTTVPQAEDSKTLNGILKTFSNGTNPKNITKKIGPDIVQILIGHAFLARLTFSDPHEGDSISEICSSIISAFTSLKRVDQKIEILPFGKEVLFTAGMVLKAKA
The data set can be described thus: EMSA.

B1: E0-1-1 (dsDNA)
DNA 1: TAATAATGCTTAGTTATAAATTACT
DNA 2: AGTAATTTATAACTAAGCATTATTA
On to B1, for which the binding result is listed as “no binding”.

The values are drawn from article PMC3467076.
